This note sets out measurements from patent publication US20260258115A1 (MAPP BIOPHARMACEUTICAL, published 2026).

A value given as a limit tells only on which side of the number the result lay.

First the molecules themselves.
B1: ADI-41498 (antibody, V domains shown)
VH: EVQLLESGGGLVKPGGSLRLSCAASGFIFSDYAMNWVRQTPGKGLEWVSSISDSSAYKYYTGSVSGRFTISRDNAKNSLYLQMNDLRPEDTAVFYCARGQWRCSGASCYSPFDSWGQGTLVTVSS
VL: SYELTQPPSVSVAPGQTARIPCGGNNIESKNVHWYQQKPGQAPVLVVYDDSDRPSGIPERFSGSNSGSTATLTISRVEAGDEADYYCHVWHRSGDLREVFGSGTKVTVL
notes: also called Ab 778; Antibody Number 778
B2: ADI-41502 (antibody, V domains shown)
VH: QVQLVQSGAEVKKPGSSVKVSCKASGGPFSSDAMSWVRQAPGQGLEWMGGIIPILGSATYAQKFKGRVTIAADESTSTSYMELSGLKYEDTAVYYCARPFYDPLTGYFDTFNVWGQGTTVTVSS
VL: QSVLTQPRSVPGSPGQSVTISCTGTSGDVGGYNYVSWYQQHPGKAPKLVIYDVTKRPSGVPDRFSGSKSGNRASLTISGLQAEDEADYYCCSYAGSQTGYVFGTGTKVTVL
notes: also called Ab 781; Antibody Number 781
B3: ADI-41496 (antibody, V domains shown)
VH: QVQLVQSGAEVKKPGASVKVSCKASGYTFTSDDINWVRQATGQGLEWMGWMNPNSGDTGYAQKFQGRVTMTRDTSISTAYMELSSLRSEDTAVYYCARVRIQCSGGRCSYWFFDLWGRGTLVTVSS
VL: QSALTQPASVSGSPGQSITISCIGTSSDVGNYNLVSWYQHHPGKAPKVMIYEVNERPSGVSNRFSGSKSGNTASLTISGLQAEDEADYYCCSYAGRSTWVFGGGTKLTVL
B4: ADI-41528 (antibody, V domains shown)
VH: EVQLVESGGGVVQPGRSLRLSCAASGFTFSSYAMHWVRQAPGKGLEWVAVISFDGSSDYYADSVKGRFTISRDSSKNTLYLRMNSLRAEDTAVYYCARRAVEYSIYNNDAFDVWGQGTTVTVSS
VL: SYELTQPPSVSVSPGQTASITCSGDKLGNKFTFWYQQKSGQSPVLVIYQETKRPSGIPERFSGSNSGNTATLTISGTQSMDEADYYCQAWDSSTAFFGGGTKLTVL
notes: also called Ab 800; Antibody Number 800
B5: ADI-41497 (antibody, V domains shown)
VH: QVQLVESGGGVVQPGRSLRLSCAASGFTFSNHAMHWVRQAPGKGLEWLSFISYDGGVNFYRDSVKGRFTISRDNSKNTLYLQMSSLRPEDTAVYYCARDRVGRVVGASYYLDYWGRGALVTVSS
VL: QSVVTQPPSVSVAPGQTASITCGGKHIGSKSVHWYQQKPGQSPVLVVHDDSDRPSGILERFSGSNSGNTATLTINRVEAGDEADYYCQVWDNASDHPYVFGPGTKVTVL
B6: ADI-41494 (antibody, V domains shown)
VH: EVQLVESGGGLVQPGRSLRLSCTTSGFTFGDYAVTWVRQAPGKGLEWIGIMKSKTYRGTTDYAASLRGRFSISRDDSKSIAYLQMTSLKSEDTGVYYCVRGHDYGDPFDYWGQGTLVTVSS
VL: QSVLTQPASVSGSPGQSITISCTGGSSDVGYYNYVSWYQQHPGKAPKLLIYDVNNRPSGVSDRFSGSKSGNTASLTISGLQPEDEADYYCSSYTRSRTWVFGGGTKLTVL
notes: also called Ab 774; Antibody Number 774
B7: ADI-41503 (antibody, V domains shown)
VH: EVQLLESGGGLVQPGGSLRLSCAASGFTFSDFPLSWVRQAPGKGLVWVSAISSSGGDTYYADSVKGRFTISRDSSKNALYLQMNSLRAEDTAVYYCAKGQELLRPYYYGMDVWGQGTTVTVSS
VL: QSALIQPASVSGSPGQSITISCTGTSSDVGGYNFVSWYQQHPGKAPKLMIFEVSNRPSGVSHRFSGSKSGNTASLTISGLQAEDEADYYCSSCTSRFTYVFGTGTKLTVL
B8: ADI-41527 (antibody, V domains shown)
VH: EVQLLESGGGLVQPGGSLRLSCAASGFTFTSYWMSWVRQAPGQGLEWVATIKQDGSEKYYVDSVKGRFTISRDNAKNSLYLQMNSLGAEDTAVYYCARDMYCSTTTCYFFETYYYNGMDVWGQGTTVTVSS
VL: DIRLTQSPSSVSASVGDRVTITCRASQVTSTWLAWYQQNPGKAPKLLIYAASRLQSGVPSRFSGSGSGTEFTLTISSLQPEDFATYYCQQANSFPLTFGGGTKVEIK
notes: also called Ab 799; Antibody Number 799
B9: ADI-41495 (antibody, V domains shown)
VH: QVQLVQSGGGLVEPGGSLRLSCAASGFTFSNTWMNWVRQAPGKGLTWVGRIKRKTDFGTSDYAAPVKGRFTISRDDSKNMVFLQMNSLKIEDTGVYYCTTHPRPYLDTTAVVYWGQGTLVTVSS
VL: QPVLTQPHSVSESPGKTVTISCIGSSGSITSNYVQWFQQRPGSAPTTVIYEDDQRPSGVPDRFSGSIDSSSNSASLTISGLKTEDEADYYCQSYHHTNPWVFGGGTKLTVL
B10: ADI-41526 (antibody, V domains shown)
VH: QVQLVQSGAEVKKPGASVKVSCEASGYTFTDYYMHWVRQAPGQGLEWMGWINPNSGVTKIAQNFQGRVTMTRDTSITTAYMDLSRLRSDDTAVYYCARVVDGDYDNWFDFWGQGTLVTVSS
VL: SYVLTQPPSASGTPGQRVTISCSGSTSNIGTNTVNWYQQPPGMAPKLLIYANNQRPSGVPDRFSGSKSGTSASLAISGLQSEDEADYHCAVWDDSLPGWVFGGGTKLTVL
B11: ADI-41508 (antibody, V domains shown)
VH: QVQLVQSGAEVRKPGASVKVSCKASGYGFRSYDLTWVRQAPGKGLEWVGWISAYSGGTNYAQTLQGRVTMTTDTSTSTAYMELRSLGPDDTAVYYCARAGLYGSGSPDGFDSWGQGTLVTVSS
VL: SYELTQPPSVSVSPGQTASITCSGDKLGDKYASWYQQRPGQSPVLVISQDTKRPSGIPERFSGSTSGNTAILTISGTQAMDEADYYCLAWDSSTAWVFGGGTKLTVL
notes: also called Ab 786; Antibody Number 786
B12: ADI-41499 (antibody, V domains shown)
VH: EVQLVESGGVVVQPGGSLRLSCAASGFSFDDYTMYWVRQAPEKGLEWISLISWNGGVTYYPDSVKGRFTVSRDNNKNSLYLQMDSLRPEDSAFYYCAKESLESSGHFLDYWGQGTLVTVSS
VL: QPVLTQSRSVSGSPGQSVTISCIGTNSDVGGYHYVSWFQHHPGKAPKLMIYDVSRRPSGVPARFSGSKSGNTASLSISGLRAEDEADYYCCSFAGTYTPYVFGTGTKLTVL
B13: ADI-41504 (antibody, V domains shown)
VH: EVQLLESGPGLLKTSETLSLTCTVSDGSISGYYWTWIRQPPGKGLECIGYISYSGSTNYSPSLKSRVTISVDTSKNQFSLKLSSVTAADTAVYYCAKIGGYCNPTKCYGWFDPWGQGTLVTVSS
VL: QPVLTQPPSVSGAPGQRVTISCTGSSSNIGAGYDVHWYQQLPGTAPKLLIFGNTNRPSGVPDRFSGSKSGTSASLAITGLQAEDEAAYYCQSYDSSLFYVVLGGGTKLTVL
notes: also called Ab 783; Antibody Number 783

One assay addresses RSV F on RSV-A2 virus (Respiratory Syncytial Virus (RSV-A2), UniProt P03420 26-574). Nature of the assay: cell-based or functional assay.
B1: the “Neutralization IC50 (RSV subtype A)” value was more than 25 µg/mL.
Same read-out and setting: with B2 the figure was more than 25 µg/mL; with B3, more than 25 µg/mL; with B4, more than 25 µg/mL.
Regarding B5, the “Neutralization IC50 (RSV subtype A)” value was more than 25 µg/mL.
As to B6, the “Neutralization IC50 (RSV subtype A)” value is more than 25 µg/mL.
Same read-out and setting: to B7 belongs more than 25 µg/mL; to B8, more than 25 µg/mL.
The same measure, in the same setting: with B9 the figure was more than 25 µg/mL; with B10, more than 25 µg/mL; with B11, 0.1 µg/mL.
Turning to B12, the “Neutralization IC50 (RSV subtype A)” value was more than 25 µg/mL.
The same measure, in the same setting: with B13 the figure was more than 25 µg/mL.

The target in a further assay is RSV prefusion F (preF), DS-Cav1 (Respiratory Syncytial Virus, UniProt P03420 26-513). Nature of the assay: BLI, IgG on anti-human IgG sensor, 100 nM antigen, 1:1 fit. (BLI is a label-free optical method that tracks binding on a fibre tip over time.)
In general, Kd refers to the constant that tells how readily two partners part at equilibrium. Low values mean a tighter complex, high ones a looser complex. The molecule B1 showed a Kd of 1.22 nM.
B2 came in with a Kd of 1.34 nM. This Kd and that of the molecule before are within 1.5-fold of each other.
The same measure, in the same setting: with B3 the figure was 1.65 nM; with B4, 2.28 nM.
B5 returned a Kd of 1.44 nM.
The molecule B6 came in with a Kd of 2.61 nM.
For the molecule B7, binding was characterised by a dissociation constant (Kd) of 3.14 nM. The Kd values of the last two molecules are within 1.5-fold of each other.
B8: the dissociation constant (Kd) was found to be 0.712 nM.
Still for that read-out and setting: to B9 belongs 77.2 nM; to B10, 0.301 nM.
In turn, B11 registered a Kd of 4.15 nM.
On the same count and under the same terms, with B12 the figure was 1.99 nM; with B13, 2.8 nM.

The next assay deals with RSV postfusion F (postF), F ΔFP (Respiratory Syncytial Virus, UniProt P03420 26-513). The assay is described as above.
As to B1, the equilibrium dissociation constant (Kd) came out at 0.22 nM.
Same read-out and setting: to B2 belongs 0.308 nM; to B3, 1.37 nM.
On the same count and under the same terms, to B4 belongs 0.348 nM; to B5, 0.268 nM; to B6, 0.44 nM.
Same read-out and setting: to B7 belongs 0.493 nM.
B8 registered a dissociation constant Kd of 0.337 nM.
B9 displayed an equilibrium dissociation constant (Kd) of 57.3 nM.
Same read-out and setting: with B10 the figure was 0.336 nM.
On to B11, for which the dissociation constant (Kd) was 0.555 nM.
Still for that read-out and setting: to B12 belongs 0.297 nM; to B13, 0.508 nM.
